Laboratory results published in US10398755B2, “Clusterin pharmaceuticals and treatment methods using the same” (UNIVERSITY OF SOUTHERN CALIFORNIA, priority 2009, dated 2019).

What was measured:
HA-tagged MMP-9 = target: T1, HA-tagged MMP-9 (Mus musculus, UniProt P41245); assay: Immunoprecipitation assay in co-transfected HEK293 cells; format: cell-based
T1 construct: carrying the mouse full length cDNA of Myc-tagged CLU (CLU) or HA-tagged MMP-9 (MMP-9) were transfected; expressed in transfected cells; host or cells: HEK293
Experimental: (A) pcDNA 3.1 (+) expression vectors carrying the mouse full length cDNA of Myc-tagged CLU (CLU) or HA-tagged MMP-9 (MMP-9) were transfected, alone (CLU or MMP-9) or combined (CLU+MMP-9), into HEK293 cells. Using the whole cell lysates of the transfected cells, immunoprecipitation (IP) with anti-HA antibody was performed to pull down MMP-9, and then the eluted samples were subjected to immunoblotting (denaturing 4-15% gradient SDS/PAGE gel) (IB) using anti-Myc antibody to detect CLU. The bands indicated by arrows are consistent to the forms of CLU undergoing intracellular processing. in, whole cell lysate used as input; IP, immunoprecipitated sample; Unc, Uncleaved CLU protein; β, β subunit of CLU. (B) Confocal microscopy of MMP-9 and CLU in HCLE cells. Nuclei were stained with DAPI, MMP-9 was detected by rhodamine-conjuated antibody, and CLU by FITC-conjugated antibody. In control, primary antibodies were omitted. The images were taken at 400× magnification. […]
Next, we tested whether MMP-9/CLU interaction also occurs in vivo. […] We also recognized that a stronger band of ˜50 KDa, compared with the other two IP lanes, was detected in co-transfected IP lane, which might be a non-glycosylated full-length form of CLU. […]

MMP-7 = target: T2, MMP-7 (Mus musculus, UniProt Q10738); assay: MMP inhibition assay (FRET peptide substrate), APMA-activated MMP-7; format: biochemical; settings: CLU 50 μg/ml (0.63 μM), RT 0.3 h
T2 construct: purchased R&D Systems
T2 sequence (Q10738 95-264): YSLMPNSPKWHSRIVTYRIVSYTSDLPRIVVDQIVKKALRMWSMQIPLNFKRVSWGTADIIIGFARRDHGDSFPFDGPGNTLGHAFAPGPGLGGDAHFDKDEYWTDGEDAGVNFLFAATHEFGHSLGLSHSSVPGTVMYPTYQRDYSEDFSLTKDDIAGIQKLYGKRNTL
Experimental: Recombinant MMP-9 catalytic domain (A) or APMA-activated MMP-7 (B) was incubated with PBS, CLU (50 μg/ml or 0.63 μM), SB3-CT (2 μM), or BSA (50 μg/ml), and MMP FRET substrate at RT for 0.3 h. RFU in PBS samples was considered 100%. Each reaction was performed in triplicate. Standard errors were depicted as a bar in each graph. MMPs were mixed with CLD in TSCB buffer, 50 mM Tris-HCI, pH, 7.5, 150 mM NaCl, 5 mM CaCl2, 0.002% Brij35 (or otherwise indicated concentration) 30 min prior to substrate addition, and incubated for 3 h at RT in the presence or absence of 0.02 mM p-aminophenylmercuric acetate (APMA). MMP activity was measured using a 5-FAM/QXL520 fluorescence resonance energy transfer (FRET) peptide as a substrate (EXlEm=490 nm/520 nm) (AnaSpec, Fremont, Calif.), according to the manufacturer's protocol. Relative fluorescence unit (RFU) was obtained by subtracting the values of APMA- or enzyme-omitted reactions from those of test samples, and then considering the fluorescence unit of a PBS (vehicle) sample as 100%. Enzyme reactions were performed in black 96-well plate, containing combinations of 10 ng, 5 ng, 5 ng, 10 ng, 2.5 μg, 2.5 μg of MMP-2, MMP-7, catalytic domain of MMP-9, MMP-9, CCLU, and/or BSA, respectively, in 50 μl reaction volume. As MMP substrates (0.4 μM), 520 MMP FRET substrate […] […] Fluorescence was monitored using a Victor^3TM V multilabel counter (PerkinElmer). […]

T1 sequence (P41245 108-730): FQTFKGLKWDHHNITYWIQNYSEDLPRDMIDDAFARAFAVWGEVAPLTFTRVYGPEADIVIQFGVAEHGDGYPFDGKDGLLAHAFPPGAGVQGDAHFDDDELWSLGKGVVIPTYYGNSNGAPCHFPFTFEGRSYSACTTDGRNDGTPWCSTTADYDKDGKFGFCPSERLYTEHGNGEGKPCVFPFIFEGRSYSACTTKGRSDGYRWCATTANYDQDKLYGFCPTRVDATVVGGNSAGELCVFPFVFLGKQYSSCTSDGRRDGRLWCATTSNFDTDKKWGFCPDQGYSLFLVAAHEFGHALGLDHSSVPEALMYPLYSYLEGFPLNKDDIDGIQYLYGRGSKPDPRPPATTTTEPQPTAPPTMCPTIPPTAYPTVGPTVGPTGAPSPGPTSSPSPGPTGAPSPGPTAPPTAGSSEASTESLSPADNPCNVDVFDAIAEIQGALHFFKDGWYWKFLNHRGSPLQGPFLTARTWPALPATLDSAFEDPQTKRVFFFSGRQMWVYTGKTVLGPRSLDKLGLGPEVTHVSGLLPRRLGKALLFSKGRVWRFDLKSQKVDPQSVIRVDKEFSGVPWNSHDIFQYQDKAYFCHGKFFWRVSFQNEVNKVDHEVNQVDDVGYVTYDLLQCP

inhibition of APMA-activated MMP-7 (MMP-7): 17%
B1: CLU: secreted disulfide-linked heterodimeric glycoprotein (70-80 KD); assays used recombinant mouse CLU with C-terminal (His)6 (protein, UniProt Q06890 22-448, looked up)
Clusterin: EQEVSDNELQELSTQGSRYINKEIQNAVQGVKHIKTLIEKTNAERKSLLNSLEEAKKKKEDALEDTRDSEMKLKAFPEVCNETMMALWEECKPCLKHTCMKFYARVCRSGSGLVGQQLEEFLNQSSPFYFWMNGDRIDSLLESDRQQSQVLDAMQDSFARASGIIDTLFQDRFFARELHDPHYFSPIGFPHKRPHFLYPKSRLVRSLMSPSHYGPPSFHNMFQPFFEMIHQAQQAMDVQLHSPAFQFPDVDFLREGEDDRTVCKEIRRNSTGCLKMKGQCEKCQEILSVDCSTNNPAQANLRQELNDSLQVAERLTEQYKELLQSFQSKMLNTSSLLEQLNDQFNWVSQLANLTQGEDKYYLRVSTVTTHSSDSEVPSRVTEVVVKLFDSDPITVVLPEEVSKDNPKFMDTVAEKALQEYRRKSRAE
modifications: C-terminal His6 tag
co-immunoprecipitation of Myc-tagged CLU with HA-tagged MMP-9 (HA-tagged MMP-9): interact in vivo even before processing of the proteins
